Test results taken from patent publication US20140242061.

Molecular target: T1, human macrophage mannose receptor (MMR), P22897
T1 chain: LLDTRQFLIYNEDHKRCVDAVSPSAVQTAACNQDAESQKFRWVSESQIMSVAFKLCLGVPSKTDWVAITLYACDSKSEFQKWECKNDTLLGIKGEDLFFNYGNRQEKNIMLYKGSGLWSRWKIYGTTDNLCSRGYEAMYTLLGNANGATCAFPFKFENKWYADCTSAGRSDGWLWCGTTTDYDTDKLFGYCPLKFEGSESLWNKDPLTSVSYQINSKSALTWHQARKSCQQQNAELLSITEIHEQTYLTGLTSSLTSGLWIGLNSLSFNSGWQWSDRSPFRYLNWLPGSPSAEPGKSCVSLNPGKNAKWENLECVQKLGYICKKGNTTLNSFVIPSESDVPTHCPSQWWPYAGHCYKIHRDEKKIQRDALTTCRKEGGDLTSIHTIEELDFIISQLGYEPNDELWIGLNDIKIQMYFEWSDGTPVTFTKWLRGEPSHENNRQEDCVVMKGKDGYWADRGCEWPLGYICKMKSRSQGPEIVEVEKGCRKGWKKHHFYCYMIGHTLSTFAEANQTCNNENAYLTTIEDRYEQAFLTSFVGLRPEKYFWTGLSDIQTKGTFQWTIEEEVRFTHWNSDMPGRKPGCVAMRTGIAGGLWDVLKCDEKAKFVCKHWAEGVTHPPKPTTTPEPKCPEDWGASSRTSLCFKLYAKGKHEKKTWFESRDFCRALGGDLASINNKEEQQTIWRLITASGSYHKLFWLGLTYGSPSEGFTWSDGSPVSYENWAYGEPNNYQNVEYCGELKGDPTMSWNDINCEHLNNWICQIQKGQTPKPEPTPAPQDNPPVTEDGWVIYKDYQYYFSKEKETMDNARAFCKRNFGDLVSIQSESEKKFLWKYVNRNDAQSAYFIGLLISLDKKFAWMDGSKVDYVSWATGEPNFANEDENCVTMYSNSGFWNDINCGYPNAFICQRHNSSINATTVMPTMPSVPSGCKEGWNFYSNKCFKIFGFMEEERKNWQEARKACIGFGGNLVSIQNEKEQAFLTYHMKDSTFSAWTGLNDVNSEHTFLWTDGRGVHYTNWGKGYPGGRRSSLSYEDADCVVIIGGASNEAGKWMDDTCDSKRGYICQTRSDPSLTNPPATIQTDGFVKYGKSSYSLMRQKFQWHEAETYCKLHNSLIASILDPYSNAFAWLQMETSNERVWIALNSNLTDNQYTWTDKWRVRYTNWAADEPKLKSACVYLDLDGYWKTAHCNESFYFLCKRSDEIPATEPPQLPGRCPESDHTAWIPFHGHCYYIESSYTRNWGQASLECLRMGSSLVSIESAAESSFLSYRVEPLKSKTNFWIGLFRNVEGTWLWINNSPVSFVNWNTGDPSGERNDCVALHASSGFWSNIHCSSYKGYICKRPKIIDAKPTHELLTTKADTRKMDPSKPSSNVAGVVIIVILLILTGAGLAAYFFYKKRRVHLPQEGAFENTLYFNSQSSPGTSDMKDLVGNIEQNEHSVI

B1: velaglucerase alfa (protein)
chain: ARPCIPKSFGYSSVVCVCNATYCDSFDPPTFPALGTFSRYESTRSGRRMELSMGPIQANHTGTGLLLTLQPEQKFQKVKGFGGAMTDAAALNILALSPPAQNLLLKSYFSEEGIGYNIIRVPMASCDFSIRTYTYADTPDDFQLHNFSLPEEDTKLKIPLIHRALQLAQRPVSLLASPWTSPTWLKTNGAVNGKGSLKGQPGDIYHQTWARYFVKFLDAYAEHKLQFWAVTAENEPSAGLLSGYPFQCLGFTPEHQRDFIARDLGPTLANSTHHNVRLLMLDDQRLLLPHWAKVVLTDPEAAKYVHGIAVHWYLDFLAPAKATLGETHRLFPNTMLFASEACVGSKFWEQSVRLGSWDRGMQYSHSIITNLLYHVVGWTDWNLALNPEGGPNWVRNFVDSPIIVDITKDTFYKQPMFYHLGHFSKFIPEGSQRVGLVASQKNDLDAVALMHPDGSAVVVVLNRSSKDVPLTIKDPAVGFLETISPGYSIHTYLWRRQ
  internalization rate in U937-derived macrophages (4-MU-glc activity assay), relative to imiglucerase: velaglucerase alfa is internalized up to 2.5-fold more efficiently than imiglucerase
